B1: bispecific antibody LAG3-G9-LC (bispecific antibody, human IgG4 S228P, kappa)
heavy: not shown
light: EIVLTQSPATLSLSPGERATLSCRASENVGTYISWYQQKPGQAPRLLIYGASNRYTGIPARFSGSGSGTDFTLTISSLEPEDFAVYYCGESYGHLYTFGGGTKVEIKRTVAAPSVFIFPPSDEQLKSGTASVVCLLNNFYPREAKVQWKVDNALQSGNSQESVTEQDSKDSTYSLSSTLTLSKADYEKHKVYACEVTHQGLSSPVTKSFNRGECGGGGSGGGSEVQLVESGGGLVQPGGSLRLSCAASGYTVSSYCMGWFRQAPGKGREGVSAIDSDGSVSYADSVKGRFTISKDNSKNTLYLQMNSLRAEDTAVYFCAADLCWVDQDQGEYNTWGQGTLVTVSS
notes: Two identical fused chains and two identical natural chains; also called L3 + H0
B2: anti-CD47 monoclonal antibody (mAb) (antibody, human IgG4 S228P, kappa, V domains shown)
VH: EVQLVQSGAEVKKPGSSVKVSCKASGYSFTHHWIHWVRQAPGQGLEWMGMIDASDSETRLSQKFKDRVTITADKSTSTAYMELSSLRSEDTAVYYCARLGRYYFDYWGQGTTVTVSS
VL: EIVLTQSPATLSLSPGERATLSCRASENVGTYISWYQQKPGQAPRLLIYGASNRYTGIPARFSGSGSGTDFTLTISSLEPEDFAVYYCGESYGHLYTFGGGTKVEIKR
notes: Full-length antibody composed of heavy chain H0 and light chain L0; also called anti-CD47 mAb; anti-CD47 antibody control
B3: bispecific antibody LAG3-G15-LC (bispecific antibody, human IgG4 S228P, kappa)
heavy: not shown
light: EIVLTQSPATLSLSPGERATLSCRASENVGTYISWYQQKPGQAPRLLIYGASNRYTGIPARFSGSGSGTDFTLTISSLEPEDFAVYYCGESYGHLYTFGGGTKVEIKRTVAAPSVFIFPPSDEQLKSGTASVVCLLNNFYPREAKVQWKVDNALQSGNSQESVTEQDSKDSTYSLSSTLTLSKADYEKHKVYACEVTHQGLSSPVTKSFNRGECGGGGSGGGGSGGGGSEVQLVESGGGLVQPGGSLRLSCAASGYTVSSYCMGWFRQAPGKGREGVSAIDSDGSVSYADSVKGRFTISKDNSKNTLYLQMNSLRAEDTAVYFCAADLCWVDQDQGEYNTWGQGTLVTVSS
notes: Two identical fused chains and two identical natural chains; also called L5 + H0
B4: bispecific antibody LAG3-G9-LN (bispecific antibody, human IgG4 S228P, kappa)
heavy: not shown
light: EVQLVESGGGLVQPGGSLRLSCAASGYTVSSYCMGWFRQAPGKGREGVSAIDSDGSVSYADSVKGRFTISKDNSKNTLYLQMNSLRAEDTAVYFCAADLCWVDQDQGEYNTWGQGTLVTVSSGGGGSGGGSEIVLTQSPATLSLSPGERATLSCRASENVGTYISWYQQKPGQAPRLLIYGASNRYTGIPARFSGSGSGTDFTLTISSLEPEDFAVYYCGESYGHLYTFGGGTKVEIKRTVAAPSVFIFPPSDEQLKSGTASVVCLLNNFYPREAKVQWKVDNALQSGNSQESVTEQDSKDSTYSLSSTLTLSKADYEKHKVYACEVTHQGLSSPVTKSFNRGEC
notes: Two identical fused chains and two identical natural chains; also called L4 + H0
B5: bispecific antibody LAG3-E-LN (bispecific antibody, human IgG4 S228P, kappa)
heavy: not shown
light: EVQLVESGGGLVQPGGSLRLSCAASGYTVSSYCMGWFRQAPGKGREGVSAIDSDGSVSYADSVKGRFTISKDNSKNTLYLQMNSLRAEDTAVYFCAADLCWVDQDQGEYNTWGQGTLVTVSSEPKSSDKTHTSPPSPEIVLTQSPATLSLSPGERATLSCRASENVGTYISWYQQKPGQAPRLLIYGASNRYTGIPARFSGSGSGTDFTLTISSLEPEDFAVYYCGESYGHLYTFGGGTKVEIKRTVAAPSVFIFPPSDEQLKSGTASVVCLLNNFYPREAKVQWKVDNALQSGNSQESVTEQDSKDSTYSLSSTLTLSKADYEKHKVYACEVTHQGLSSPVTKSFNRGEC
notes: Two identical fused chains and two identical natural chains; also called L2 + H0
B6: bispecific antibody LAG3-E-LC (bispecific antibody, human IgG4 S228P, kappa)
heavy: not shown
light: EIVLTQSPATLSLSPGERATLSCRASENVGTYISWYQQKPGQAPRLLIYGASNRYTGIPARFSGSGSGTDFTLTISSLEPEDFAVYYCGESYGHLYTFGGGTKVEIKRTVAAPSVFIFPPSDEQLKSGTASVVCLLNNFYPREAKVQWKVDNALQSGNSQESVTEQDSKDSTYSLSSTLTLSKADYEKHKVYACEVTHQGLSSPVTKSFNRGECEPKSSDKTHTSPPSPEVQLVESGGGLVQPGGSLRLSCAASGYTVSSYCMGWFRQAPGKGREGVSAIDSDGSVSYADSVKGRFTISKDNSKNTLYLQMNSLRAEDTAVYFCAADLCWVDQDQGEYNTWGQGTLVTVSS
notes: Two identical fused chains and two identical natural chains; also called L1 + H0
B7: bispecific antibody LAG3-G15-LN (bispecific antibody, human IgG4 S228P, kappa)
heavy: not shown
light: EVQLVESGGGLVQPGGSLRLSCAASGYTVSSYCMGWFRQAPGKGREGVSAIDSDGSVSYADSVKGRFTISKDNSKNTLYLQMNSLRAEDTAVYFCAADLCWVDQDQGEYNTWGQGTLVTVSSGGGGSGGGGSGGGGSEIVLTQSPATLSLSPGERATLSCRASENVGTYISWYQQKPGQAPRLLIYGASNRYTGIPARFSGSGSGTDFTLTISSLEPEDFAVYYCGESYGHLYTFGGGTKVEIKRTVAAPSVFIFPPSDEQLKSGTASVVCLLNNFYPREAKVQWKVDNALQSGNSQESVTEQDSKDSTYSLSSTLTLSKADYEKHKVYACEVTHQGLSSPVTKSFNRGEC
notes: Two identical fused chains and two identical natural chains; also called L6 + H0
B8: bispecific antibody LAG3-E-HC (bispecific antibody, human IgG4 S228P, kappa)
heavy: not shown
light: EIVLTQSPATLSLSPGERATLSCRASENVGTYISWYQQKPGQAPRLLIYGASNRYTGIPARFSGSGSGTDFTLTISSLEPEDFAVYYCGESYGHLYTFGGGTKVEIKRTVAAPSVFIFPPSDEQLKSGTASVVCLLNNFYPREAKVQWKVDNALQSGNSQESVTEQDSKDSTYSLSSTLTLSKADYEKHKVYACEVTHQGLSSPVTKSFNRGEC
notes: Two identical fused chains and two identical natural chains; also called H1 + L0
B9: bispecific antibody LAG3-G15-HC (bispecific antibody, human IgG4 S228P, kappa)
heavy: not shown
light: EIVLTQSPATLSLSPGERATLSCRASENVGTYISWYQQKPGQAPRLLIYGASNRYTGIPARFSGSGSGTDFTLTISSLEPEDFAVYYCGESYGHLYTFGGGTKVEIKRTVAAPSVFIFPPSDEQLKSGTASVVCLLNNFYPREAKVQWKVDNALQSGNSQESVTEQDSKDSTYSLSSTLTLSKADYEKHKVYACEVTHQGLSSPVTKSFNRGEC
notes: Two identical fused chains and two identical natural chains; also called H5 + L0
B10: bispecific antibody LAG3-G15-HN (bispecific antibody, human IgG4 S228P, kappa)
heavy: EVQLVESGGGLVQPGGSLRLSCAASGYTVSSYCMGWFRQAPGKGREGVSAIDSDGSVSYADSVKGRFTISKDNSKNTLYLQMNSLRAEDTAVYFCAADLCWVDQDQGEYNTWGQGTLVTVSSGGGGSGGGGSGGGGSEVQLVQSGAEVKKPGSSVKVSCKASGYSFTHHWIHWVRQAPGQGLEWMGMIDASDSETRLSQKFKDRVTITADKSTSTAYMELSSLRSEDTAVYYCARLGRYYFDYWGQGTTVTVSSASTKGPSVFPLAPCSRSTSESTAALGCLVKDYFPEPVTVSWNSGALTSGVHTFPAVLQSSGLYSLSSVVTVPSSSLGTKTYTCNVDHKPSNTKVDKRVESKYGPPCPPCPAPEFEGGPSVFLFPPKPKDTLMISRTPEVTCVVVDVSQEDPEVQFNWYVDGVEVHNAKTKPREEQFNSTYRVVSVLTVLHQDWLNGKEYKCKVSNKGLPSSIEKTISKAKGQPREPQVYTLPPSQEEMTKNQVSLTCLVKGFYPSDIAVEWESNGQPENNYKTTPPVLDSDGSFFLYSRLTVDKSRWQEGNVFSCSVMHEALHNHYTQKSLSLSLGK
light: EIVLTQSPATLSLSPGERATLSCRASENVGTYISWYQQKPGQAPRLLIYGASNRYTGIPARFSGSGSGTDFTLTISSLEPEDFAVYYCGESYGHLYTFGGGTKVEIKRTVAAPSVFIFPPSDEQLKSGTASVVCLLNNFYPREAKVQWKVDNALQSGNSQESVTEQDSKDSTYSLSSTLTLSKADYEKHKVYACEVTHQGLSSPVTKSFNRGEC
notes: Two identical fused chains and two identical natural chains; also called H6 + L0
B11: bispecific antibody LAG3-G9-HC (bispecific antibody, human IgG4 S228P, kappa)
heavy: not shown
light: EIVLTQSPATLSLSPGERATLSCRASENVGTYISWYQQKPGQAPRLLIYGASNRYTGIPARFSGSGSGTDFTLTISSLEPEDFAVYYCGESYGHLYTFGGGTKVEIKRTVAAPSVFIFPPSDEQLKSGTASVVCLLNNFYPREAKVQWKVDNALQSGNSQESVTEQDSKDSTYSLSSTLTLSKADYEKHKVYACEVTHQGLSSPVTKSFNRGEC
notes: Two identical fused chains and two identical natural chains; also called LAGS-G9-HC; H3 + L0
B12: bispecific antibody LAG3-G9-HN (bispecific antibody, human IgG4 S228P, kappa)
heavy: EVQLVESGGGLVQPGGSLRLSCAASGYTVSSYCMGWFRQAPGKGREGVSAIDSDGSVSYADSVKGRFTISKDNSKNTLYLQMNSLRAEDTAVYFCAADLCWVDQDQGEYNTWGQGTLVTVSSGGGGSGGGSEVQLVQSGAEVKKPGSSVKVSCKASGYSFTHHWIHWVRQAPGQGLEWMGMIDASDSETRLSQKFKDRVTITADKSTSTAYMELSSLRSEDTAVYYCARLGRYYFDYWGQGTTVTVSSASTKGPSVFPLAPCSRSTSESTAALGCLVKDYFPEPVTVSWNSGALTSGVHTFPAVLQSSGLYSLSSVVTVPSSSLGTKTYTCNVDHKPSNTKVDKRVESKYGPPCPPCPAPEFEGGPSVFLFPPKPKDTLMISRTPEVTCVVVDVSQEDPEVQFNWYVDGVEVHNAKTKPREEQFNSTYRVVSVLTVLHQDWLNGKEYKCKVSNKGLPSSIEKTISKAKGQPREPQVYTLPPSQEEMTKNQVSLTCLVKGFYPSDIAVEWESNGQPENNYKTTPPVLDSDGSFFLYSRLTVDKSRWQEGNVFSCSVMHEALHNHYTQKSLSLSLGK
light: EIVLTQSPATLSLSPGERATLSCRASENVGTYISWYQQKPGQAPRLLIYGASNRYTGIPARFSGSGSGTDFTLTISSLEPEDFAVYYCGESYGHLYTFGGGTKVEIKRTVAAPSVFIFPPSDEQLKSGTASVVCLLNNFYPREAKVQWKVDNALQSGNSQESVTEQDSKDSTYSLSSTLTLSKADYEKHKVYACEVTHQGLSSPVTKSFNRGEC
notes: Two identical fused chains and two identical natural chains; also called H4 + L0
B13: bispecific antibody LAG3-E-HN (bispecific antibody, human IgG4 S228P, kappa)
heavy: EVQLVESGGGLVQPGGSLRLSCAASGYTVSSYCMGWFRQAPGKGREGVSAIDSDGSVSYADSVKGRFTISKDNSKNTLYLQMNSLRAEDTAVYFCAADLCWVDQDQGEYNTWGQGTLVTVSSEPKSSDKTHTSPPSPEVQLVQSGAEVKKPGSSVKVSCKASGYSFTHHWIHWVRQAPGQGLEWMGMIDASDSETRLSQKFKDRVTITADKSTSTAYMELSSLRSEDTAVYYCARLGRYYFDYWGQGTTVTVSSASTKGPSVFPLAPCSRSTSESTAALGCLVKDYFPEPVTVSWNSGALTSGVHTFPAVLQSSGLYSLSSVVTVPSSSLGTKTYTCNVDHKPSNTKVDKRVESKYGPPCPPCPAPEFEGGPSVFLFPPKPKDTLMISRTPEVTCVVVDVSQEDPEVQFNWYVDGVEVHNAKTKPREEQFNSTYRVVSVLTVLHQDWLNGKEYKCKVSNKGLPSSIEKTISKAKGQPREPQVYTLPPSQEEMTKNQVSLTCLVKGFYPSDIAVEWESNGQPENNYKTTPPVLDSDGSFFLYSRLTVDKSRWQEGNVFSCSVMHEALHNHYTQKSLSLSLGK
light: EIVLTQSPATLSLSPGERATLSCRASENVGTYISWYQQKPGQAPRLLIYGASNRYTGIPARFSGSGSGTDFTLTISSLEPEDFAVYYCGESYGHLYTFGGGTKVEIKRTVAAPSVFIFPPSDEQLKSGTASVVCLLNNFYPREAKVQWKVDNALQSGNSQESVTEQDSKDSTYSLSSTLTLSKADYEKHKVYACEVTHQGLSSPVTKSFNRGEC
notes: Two identical fused chains and two identical natural chains; also called H2 + L0

Each binder was assayed against T1, human CD47 (human, UniProt Q08722 19-323) (assay: flow cytometry on CHO-K1 cells expressing human CD47).
T1 construct: whole, on cells; also called CD47 antigen; integrin associated protein
Method: (§1) For the constructed series of bispecific antibodies, the affinity of these samples with antigens was measured by using a flow cytometer. […] Then, an antibody-antigen binding curve was generated based on the geometric mean, raw data of four parameters was plotted by using the […] Prism V6.02 software, and a best fitted value program was compiled to analyze EC₅₀.

T1 sequence (Q08722 19-323): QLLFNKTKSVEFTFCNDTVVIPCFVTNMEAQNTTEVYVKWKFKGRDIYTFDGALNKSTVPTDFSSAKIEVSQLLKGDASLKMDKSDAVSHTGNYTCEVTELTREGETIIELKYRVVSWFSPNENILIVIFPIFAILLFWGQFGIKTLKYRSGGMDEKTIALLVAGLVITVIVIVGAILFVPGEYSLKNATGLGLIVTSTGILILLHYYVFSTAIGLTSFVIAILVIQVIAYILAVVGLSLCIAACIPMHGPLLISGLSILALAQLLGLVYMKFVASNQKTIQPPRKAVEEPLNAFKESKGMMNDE

Binding result, binds:
B1
B2
B3

Each binder was assayed against T2, human LAG-3 (human, UniProt P18627 23-525) (assay: flow cytometry on CHO-K1 cells expressing human LAG-3).
T2 construct: whole, on cells; also called LAG-3 antigen
T2 sequence (looked up): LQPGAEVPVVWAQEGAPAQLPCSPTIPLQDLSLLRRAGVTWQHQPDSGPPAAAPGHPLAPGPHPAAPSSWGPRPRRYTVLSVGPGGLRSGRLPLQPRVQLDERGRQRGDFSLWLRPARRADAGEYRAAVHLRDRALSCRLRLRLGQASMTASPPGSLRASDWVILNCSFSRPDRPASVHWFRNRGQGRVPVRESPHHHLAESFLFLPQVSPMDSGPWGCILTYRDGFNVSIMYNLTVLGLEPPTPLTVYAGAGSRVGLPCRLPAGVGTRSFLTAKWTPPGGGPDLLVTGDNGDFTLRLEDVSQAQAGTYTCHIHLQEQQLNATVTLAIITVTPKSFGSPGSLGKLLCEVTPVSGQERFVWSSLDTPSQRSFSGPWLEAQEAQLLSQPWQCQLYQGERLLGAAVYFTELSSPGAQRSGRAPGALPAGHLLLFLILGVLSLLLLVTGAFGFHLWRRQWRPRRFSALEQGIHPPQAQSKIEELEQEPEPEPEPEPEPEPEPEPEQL
Method: as §1

Binding result, binds:
B4
B5
B1
B6
B7
B8
B9
B10
B11
B12
B13
B3

Source: patent publication US20220267436A1 (NANJING GENSCRIPT BIOTECH, published 2022)
